Reference: publication PMC4513230 (2015)

Assays:
[1] = system: 40S ribosomal subunit, Rps5-E144R;eIF1;eIF1A;eIF2 WT; experiment: EMSA kinetics (Kd = koff/kon); settings: methionylated; T7 transcript; 30 mM Hepes-KOH pH 7.4, 100 mM KOAc, 3 mM Mg(OAc)2, 2 mM DTT, 26°C; 1 nM [35S]-Met-tRNAi, 200-250 nM eIF2, 1 uM eIF1 and eIF1A, 100 uM GDPNP (Kd assays), mRNA …
[2] = system: 40S ribosomal subunit, Rps5-R148E;eIF1;eIF1A;eIF2 with eIF2beta-S264Y (SUI3-2); experiment: EMSA kinetics (dissociation); settings: methionylated; T7 transcript; 30 mM Hepes-KOH pH 7.4, 100 mM KOAc, 3 mM Mg(OAc)2, 2 mM DTT, 26°C; 1 nM [35S]-Met-tRNAi, 200-250 nM eIF2, 1 uM eIF1 and eIF1A, 100 uM GDPNP (Kd assays), mRNA …
[3] = system: 40S ribosomal subunit, Rps5-R148E;eIF1;eIF1A;eIF2 WT; experiment: EMSA kinetics (dissociation); settings: methionylated; T7 transcript; 30 mM Hepes-KOH pH 7.4, 100 mM KOAc, 3 mM Mg(OAc)2, 2 mM DTT, 26°C; 1 nM [35S]-Met-tRNAi, 200-250 nM eIF2, 1 uM eIF1 and eIF1A, 100 uM GDPNP (Kd assays), mRNA …
[4] = system: 40S ribosomal subunit, WT Rps5;eIF1;eIF1A;eIF2 with eIF2beta-S264Y (SUI3-2); experiment: EMSA kinetics (dissociation); settings: methionylated; T7 transcript; 30 mM Hepes-KOH pH 7.4, 100 mM KOAc, 3 mM Mg(OAc)2, 2 mM DTT, 26°C; 1 nM [35S]-Met-tRNAi, 200-250 nM eIF2, 1 uM eIF1 and eIF1A, 100 uM GDPNP (Kd assays), mRNA …
[5] = system: 40S ribosomal subunit, WT Rps5;eIF1;eIF1A;eIF2 WT; experiment: EMSA (native gel); settings: methionylated; T7 transcript; 30 mM Hepes-KOH pH 7.4, 100 mM KOAc, 3 mM Mg(OAc)2, 2 mM DTT, 26°C; 1 nM [35S]-Met-tRNAi, 200-250 nM eIF2, 1 uM eIF1 and eIF1A, 100 uM GDPNP (Kd assays), mRNA …
[6] = system: 40S ribosomal subunit, Rps5-R148E;eIF1;eIF1A;eIF2 WT; experiment: EMSA (native gel); settings: methionylated; T7 transcript; 30 mM Hepes-KOH pH 7.4, 100 mM KOAc, 3 mM Mg(OAc)2, 2 mM DTT, 26°C; 1 nM [35S]-Met-tRNAi, 200-250 nM eIF2, 1 uM eIF1 and eIF1A, 100 uM GDPNP (Kd assays), mRNA …
[7] = system: 40S ribosomal subunit, Rps5-E144R;eIF1;eIF1A;eIF2 WT; experiment: EMSA (native gel); settings: methionylated; T7 transcript; 30 mM Hepes-KOH pH 7.4, 100 mM KOAc, 3 mM Mg(OAc)2, 2 mM DTT, 26°C; 1 nM [35S]-Met-tRNAi, 200-250 nM eIF2, 1 uM eIF1 and eIF1A, 100 uM GDPNP (Kd assays), mRNA …
[8] = target: 40S·eIF1·eIF1A complex assembled with Rps5-R148E mutant 40S subunits (yeast (S. cerevisiae), UniProt P26783 1-225; P32911 1-108; P38912 1-153, R148E)

Molecule	binding signal (fold lower affinity than WT 40S) [1]	binding signal (fold higher koff than WT 40S) [2]	binding signal (fold higher koff than WT 40S) [3]	binding signal (fold lower koff than with WT eIF2) [4]	Kd [5] [nM]	Kd [6] [nM]	Kd [7] [nM]	Kd [8] [nM]
initiator Met-tRNAi	40	4	2	3	< 1	< 1	< 1	–
eIF2∙GTP∙Met-tRNAi ternary complex (TC), wild-type eIF2 (complex) chain 1: MSTSHCRFYENKYPEIDDIVMVNVQQIAEMGAYVKLLEYDNIEGMILLSELSRRRIRSIQKLIRVGKNDVAVVLRVDKEKGYIDLSKRRVSSEDIIKCEEKYQKSKTVHSILRYCAEKFQIPLEELYKTIAWPLSRKFGHAYEAFKLSIIDETVWEGIEPPSKDVLDELKNYISKRLTPQAVKIRADVEVSCFSYEGIDAIKDALKSAEDMSTEQMQVKVKLVAAPLYVLTTQALDKQKGIEQLESAIEKITEVITKYGGVCNITMPPKAVTATEDAELQALLESKELDNRSDSEDDEDESDDE chain 2: MSSDLAAELGFDPALKKKKKTKKVIPDDFDAAVNGKENGSGDDLFAGLKKKKKKSKSVSADAEAEKEPTDDIAEALGELSLKKKKKKTKDSSVDAFEKELAKAGLDNVDAESKEGTPSANSSIQQEVGLPYSELLSRFFNILRTNNPELAGDRSGPKFRIPPPVCLRDGKKTIFSNIQDIAEKLHRSPEHLIQYLFAELGTSGSVDGQKRLVIKGKFQSKQMENVLRRYILEYVTCKTCKSINTELKREQSNRLFFMVCKSCGSTRSVSSIKTGFQATVGKRRRM chain 3: MSDLQDQEPSIIINGNLEPVGEPDIVEETEVVAQETQETQDADKPKKKVAFTGLEEDGETEEEKRKREFEEGGGLPEQPLNPDFSKLNPLSAEIINRQATINIGTIGHVAHGKSTVVRAISGVQTVRFKDELERNITIKLGYANAKIYKCQEPTCPEPDCYRSFKSDKEISPKCQRPGCPGRYKLVRHVSFVDCPGHDILMSTMLSGAAVMDAALLLIAGNESCPQPQTSEHLAAIEIMKLKHVIILQNKVDLMREESALEHQKSILKFIRGTIADGAPIVPISAQLKYNIDAVNEFIVKTIPVPPRDFMISPRLIVIRSFDVNKPGAEIEDLKGGVAGGSILNGVFKLGDEIEIRPGIVTKDDKGKIQCKPIFSNIVSLFAEQNDLKFAVPGGLIGVGTKVDPTLCRADRLVGQVVGAKGHLPNIYTDIEINYFLLRRLLGVKTDGQKQAKVRKLEPNEVLMVNIGSTATGARVVAVKADMARLQLTSPACTEINEKIALSRRIEKHWRLIGWATIKKGTTLEPIA	–	–	–	–	–	–	–	101
